pKd: −log10 of the molar value.
How the values were obtained:
[1] = target: GFP-tagged WT NuMA-tail II (aa 1868–2091) (human) (UniProt Q14980); assay: TIRF microscopy of GFP-tagged protein on immobilised microtubules
[2] = target: NuMA-tail (1970–2091)—GFP (human) (UniProt Q14980); assay: as above
[3] = target: GFP-tagged WT NuMA-tail II (aa 1868–2091) (human) (UniProt Q14980); assay: ITC

fold reduction of the GFP signal of m1 on microtubules [1] [fold]	fold reduction of the microtubule binding of m17 [2] [fold]	pKd [3]	Substance
50	80	5.66	1:1 stoichiometric mixture of full-length Importin-α and Importin-β (from UniProt P52292 1-529; Q14974 1-876) (complex)
		6.60	Importin-α lacking the Importin-β binding (IBB) domain (aa 70–524), mouse (from UniProt P52293 70-524) (domain or fragment)

Reference: PMC5674899
